From the Human Domainome abundance scans (Beltran et al. 2025)
± gives the uncertainty stated by the source.

B1: Activity-dependent neuroprotector homeobox protein, residues 770 to 810; numbered along this chain, Q9H2P0 (parent)
chain: FLTKYFNKQPYPTRREIEKLAASLWLWKSDIASHFSNKRKK

Variants of: B1
Assay: abundance fitness (aPCA) (normalised: wild type 0, dead -1); higher = more abundant; growth selection in yeast, the domain comes from the species named
Details: Homo sapiens

Abundance fitness of substitutions, site by site:
K19: Y -0.764 ± 0.12 | E -0.241 ± 0.11 | G -0.221 ± 0.06 | D -0.099 ± 0.075 | H -0.413 ± 0.17 | I -0.686 ± 0.18 | A -0.52 ± 0.07 | V -0.502 ± 0.082 | C -0.502 ± 0.11 | F -0.944 ± 0.14 | N -0.144 ± 0.092 | S -0.413 ± 0.067 | Q -0.276 ± 0.089 | L -0.63 ± 0.089 | T -0.302 ± 0.06 | W -0.79 ± 0.2 | P -0.864 ± 0.17
P10: L -0.15 ± 0.063 | S 0.06 ± 0.068 | K -0.139 ± 0.095 | N 0.09 ± 0.078 | H -0.153 ± 0.13 | W 0.059 ± 0.14 | V 0.062 ± 0.056 | Y -0.155 ± 0.12 | I -0.114 ± 0.073 | T 0.011 ± 0.061 | A -0.095 ± 0.068 | G -0.129 ± 0.084 | C 0.011 ± 0.077 | E 0.158 ± 0.081
K8: A -1.12 ± 0.094 | P -1.11 ± 0.13 | W -0.942 ± 0.18 | Y -0.554 ± 0.1 | N -0.362 ± 0.066 | D -0.325 ± 0.076 | H -1.09 ± 0.1 | C -1.11 ± 0.24 | E -0.634 ± 0.14 | T -0.951 ± 0.094 | F -1.13 ± 0.18 | M -0.639 ± 0.33 | I -1.43 ± 0.19 | G -0.217 ± 0.077 | R -0.22 ± 0.051 | V -1.15 ± 0.12 | S -0.995 ± 0.074 | L -1.02 ± 0.097 | Q -0.858 ± 0.12
K4: Q -0.646 ± 0.29 | S -0.749 ± 0.12 | D -0.644 ± 0.19 | A -0.735 ± 0.27 | V -0.815 ± 0.43 | R -0.549 ± 0.11 | N -0.419 ± 0.18 | L -1 ± 0.36 | T -0.877 ± 0.29 | G -1.07 ± 0.24 | P -0.904 ± 0.2 | C -0.698 ± 0.18
L24: A -0.026 ± 0.083 | C -0.122 ± 0.095
N7: T -0.215 ± 0.053 | C -0.455 ± 0.15 | I -1.17 ± 0.2 | P 0.017 ± 0.046 | G -0.365 ± 0.067 | R -0.174 ± 0.045 | M -0.76 ± 0.12 | V -0.841 ± 0.11 | F -1.24 ± 0.32 | Y -0.712 ± 0.12 | W -0.958 ± 0.21 | S -0.107 ± 0.049 | E -0.058 ± 0.14 | A -0.145 ± 0.053
Q9: S -0.139 ± 0.062 | Y -0.409 ± 0.19 | R 0.039 ± 0.059 | W -0.823 ± 0.38 | G -0.133 ± 0.12 | T -0.053 ± 0.063 | I -0.074 ± 0.1 | F -0.233 ± 0.11 | D -0.169 ± 0.12 | C -0.014 ± 0.063 | L -0.149 ± 0.065 | A -0.269 ± 0.07 | V -0.269 ± 0.15 | P -0.698 ± 0.069 | E -0.075 ± 0.11 | N -0.007 ± 0.068
R14: D -0.826 ± 0.28 | Q -0.265 ± 0.14 | A -0.595 ± 0.22 | M -0.028 ± 0.12 | P -0.391 ± 0.14 | Y -0.13 ± 0.25 | L -0.14 ± 0.081 | V -0.388 ± 0.13 | S -0.387 ± 0.072 | F -0.392 ± 0.14 | K -0.048 ± 0.27 | H -0.514 ± 0.42 | W -0.262 ± 0.12
I17: H -0.237 ± 0.06 | D -0.604 ± 0.2 | S -0.455 ± 0.061 | Q -0.89 ± 0.14 | C -0.024 ± 0.072 | N -0.687 ± 0.14 | F -0.205 ± 0.079 | G -0.158 ± 0.055 | R -0.294 ± 0.056 | L -0.019 ± 0.068 | A -0.127 ± 0.059 | M 0.239 ± 0.087 | Y -0.1 ± 0.086 | W 0.18 ± 0.066 | K -0.404 ± 0.09 | P -0.296 ± 0.066 | E -0.61 ± 0.11 | V -0.025 ± 0.053
E18: T -0.176 ± 0.08 | N -0.213 ± 0.083 | P -0.189 ± 0.068 | R 0.066 ± 0.05 | Y -0.378 ± 0.14 | H -0.257 ± 0.12 | K 0.172 ± 0.062 | D -0.109 ± 0.15 | C -0.232 ± 0.069 | M 0.075 ± 0.41 | V -0.509 ± 0.063 | W -0.356 ± 0.11 | Q 0.061 ± 0.069 | A -0.025 ± 0.047 | I -0.749 ± 0.49
T13: R -0.048 ± 0.055 | W 0.221 ± 0.072 | E -0.369 ± 0.1 | Y 0.083 ± 0.18 | M 0.28 ± 0.15 | Q -0.098 ± 0.084 | H -0.135 ± 0.079 | K -0.046 ± 0.092 | I 0.101 ± 0.11 | A 0.016 ± 0.069 | F 0.044 ± 0.29 | L 0.132 ± 0.077 | D -0.26 ± 0.11 | V 0.088 ± 0.069 | S -0.079 ± 0.083 | G 0.16 ± 0.051
T3: S 0.001 ± 0.054 | C -0.536 ± 0.081 | H -0.325 ± 0.058 | D -0.291 ± 0.069 | Q -0.164 ± 0.089 | Y -0.619 ± 0.18 | G -0.132 ± 0.053 | N 0.167 ± 0.092 | A -0.303 ± 0.055 | I -0.475 ± 0.1 | L -0.759 ± 0.084 | K 0.262 ± 0.056 | F -0.613 ± 0.14 | W -0.786 ± 0.11 | E -0.059 ± 0.13 | V -0.544 ± 0.066 | M -0.395 ± 0.12 | P -0.935 ± 0.13
Y5: K -0.183 ± 0.28 | G -0.812 ± 0.49 | I -0.094 ± 0.098 | L -0.322 ± 0.095 | P -0.526 ± 0.23 | N -0.564 ± 0.25
R15: C -0.182 ± 0.089 | M -0.204 ± 0.069 | W -0.326 ± 0.12 | I -0.252 ± 0.14 | V -0.149 ± 0.13 | T -0.005 ± 0.066 | A 0.116 ± 0.052 | D -0.278 ± 0.15 | H -0.384 ± 0.11 | G -0.088 ± 0.061 | E -0.02 ± 0.085 | K 0.093 ± 0.072 | L -0.211 ± 0.058 | S -0.018 ± 0.053 | Q -0.162 ± 0.085 | N -0.173 ± 0.26
Y11: Q 0.181 ± 0.071 | H 0.076 ± 0.078 | T 0.135 ± 0.061 | R -0.035 ± 0.052 | N 0.124 ± 0.059 | W 0.003 ± 0.095 | P -0.124 ± 0.061 | F -0.182 ± 0.13 | V 0.031 ± 0.053 | D -0.086 ± 0.16 | C 0.086 ± 0.3 | L -0.006 ± 0.052 | G 0.293 ± 0.051 | I 0.05 ± 0.087 | S 0.275 ± 0.047 | E 0.02 ± 0.071 | M 0.058 ± 0.085 | A 0.137 ± 0.064
P12: T -0.142 ± 0.079 | K 0.062 ± 0.21 | Q -0.036 ± 0.091 | V -0.584 ± 0.088 | F -0.402 ± 0.12 | D 0.092 ± 0.098 | G 0.099 ± 0.051 | R -0.128 ± 0.061 | L -0.22 ± 0.082 | W -0.235 ± 0.087 | E 0.059 ± 0.091 | A 0.048 ± 0.059 | S -0.102 ± 0.061 | M -0.114 ± 0.13
A21: E -0.39 ± 0.12 | P -0.3 ± 0.086 | L -0.082 ± 0.06 | G 0.202 ± 0.059 | W 0.008 ± 0.053 | Q -0.328 ± 0.17 | K 0.138 ± 0.058 | R -0.021 ± 0.063 | I -0.169 ± 0.099 | H -0.413 ± 0.075 | C -0.099 ± 0.074 | S -0.012 ± 0.072 | Y -0.177 ± 0.088 | V -0.128 ± 0.087 | M 0.083 ± 0.12
L2: V -0.369 ± 0.05 | S -0.88 ± 0.091 | Y -0.248 ± 0.12 | W 0.044 ± 0.048 | T -0.661 ± 0.091
E16: C 0.082 ± 0.063 | A -0.14 ± 0.06 | W 0.173 ± 0.089 | M -0.04 ± 0.13 | K 0.095 ± 0.13 | S -0.036 ± 0.085 | L -0.194 ± 0.06 | P 0.159 ± 0.067 | F 0.304 ± 0.2 | T -0.065 ± 0.076 | D 0.016 ± 0.091 | H -0.133 ± 0.086 | R 0.054 ± 0.051 | I 0.009 ± 0.23 | V -0.168 ± 0.082 | Y -0.096 ± 0.091
F6: A -0.235 ± 0.05 | M -0.209 ± 0.067 | T -0.328 ± 0.056 | Y -0.295 ± 0.07 | L -0.157 ± 0.045 | V -0.369 ± 0.05 | I -0.237 ± 0.059 | D -0.837 ± 0.085 | C -0.223 ± 0.054 | S -0.76 ± 0.068 | R -0.163 ± 0.044 | K -0.098 ± 0.09 | G -0.442 ± 0.056 | E -0.821 ± 0.18 | H -0.794 ± 0.089 | P -0.942 ± 0.071
S23: F -0.614 ± 0.13 | I -0.432 ± 0.094 | A -0.177 ± 0.079 | N -0.074 ± 0.16 | R 0.276 ± 0.061 | V -0.101 ± 0.085 | D -0.002 ± 0.12 | H -0.103 ± 0.077 | E -0.116 ± 0.13 | Y -0.364 ± 0.2 | K 0.262 ± 0.071 | W -0.091 ± 0.14 | C -0.119 ± 0.082 | G -0.182 ± 0.094 | L -0.211 ± 0.081 | Q -0.404 ± 0.28 | M -0.36 ± 0.23 | P -0.12 ± 0.061 | T -0.075 ± 0.086
L20: N -0.152 ± 0.15 | E -1.02 ± 0.25 | P -0.124 ± 0.057 | K 0.036 ± 0.14 | Y 0.064 ± 0.12 | R -0.144 ± 0.064 | G -0.181 ± 0.069 | T -0.106 ± 0.076 | F 0.042 ± 0.06 | H -0.269 ± 0.085 | A -0.038 ± 0.066 | D -0.322 ± 0.11 | Q -0.462 ± 0.096 | S -0.243 ± 0.052 | V -0.025 ± 0.061 | C 0.124 ± 0.094 | I -0.005 ± 0.099 | W 0.257 ± 0.085
A22: L -0.396 ± 0.058 | V -0.344 ± 0.055 | M -0.084 ± 0.071 | T -0.087 ± 0.087 | W -0.193 ± 0.11 | I -0.368 ± 0.13 | D -0.25 ± 0.11 | S -0.117 ± 0.059 | Y -0.303 ± 0.063 | N -0.015 ± 0.064 | Q 0.045 ± 0.065 | E -0.162 ± 0.11 | K 0.075 ± 0.091 | G -0.058 ± 0.062 | F -0.594 ± 0.077 | R -0.027 ± 0.052 | C -0.229 ± 0.11
